Data taken from patent US20160223545A1.

Key:
[1] = target: phosphorylated adapter protein p52ShcA (UniProt P29353); assay: multiplate ELISA, P-p52ShcA coated, GST-P-Jak3 titrated, anti-GST detection
[2] = target: T1, phosphorylated Villin (UniProt P09327); assay: multiplate ELISA, P-Villin coated, GST-P-Jak3 titrated, anti-GST detection, GST-alone control subtracted
T1 sequence (tyrosine phosphorylated by expression in E. coli TKX1; sites not stated, looked up): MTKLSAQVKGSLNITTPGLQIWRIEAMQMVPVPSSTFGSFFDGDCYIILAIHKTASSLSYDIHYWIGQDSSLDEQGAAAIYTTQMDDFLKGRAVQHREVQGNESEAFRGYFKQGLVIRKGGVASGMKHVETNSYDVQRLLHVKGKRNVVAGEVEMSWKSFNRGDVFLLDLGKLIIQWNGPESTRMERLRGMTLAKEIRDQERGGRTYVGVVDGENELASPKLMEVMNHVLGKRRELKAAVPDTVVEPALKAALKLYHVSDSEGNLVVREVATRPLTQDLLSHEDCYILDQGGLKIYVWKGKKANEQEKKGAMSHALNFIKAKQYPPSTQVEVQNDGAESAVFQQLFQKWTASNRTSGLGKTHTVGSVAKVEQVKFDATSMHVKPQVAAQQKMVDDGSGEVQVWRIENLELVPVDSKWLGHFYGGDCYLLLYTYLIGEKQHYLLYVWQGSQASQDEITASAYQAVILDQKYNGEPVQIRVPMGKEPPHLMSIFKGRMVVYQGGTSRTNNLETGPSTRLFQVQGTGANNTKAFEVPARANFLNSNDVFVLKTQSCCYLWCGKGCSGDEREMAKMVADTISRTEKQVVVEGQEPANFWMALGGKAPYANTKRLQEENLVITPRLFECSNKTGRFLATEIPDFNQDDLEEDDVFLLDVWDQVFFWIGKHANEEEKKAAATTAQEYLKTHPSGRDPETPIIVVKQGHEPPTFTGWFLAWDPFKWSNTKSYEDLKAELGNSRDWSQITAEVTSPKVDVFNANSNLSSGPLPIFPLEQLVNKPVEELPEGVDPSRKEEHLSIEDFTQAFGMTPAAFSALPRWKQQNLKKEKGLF

[3] = target: phosphorylated adapter protein p52ShcA (UniProt P29353); assay: multiplate ELISA, comparison of Kd values
[4] = target: T1, phosphorylated Villin; assay: multiplate ELISA, P-Villin coated, GST-Jak3-G257 titrated, anti-GST detection

Substance	Kd [1] [nM]	Kd [2] [nM]	fold weaker than P-Jak3 binding with P-Villin [3] [fold]	Kd [4] [nM]
phosphorylated GST-WT-Jak3 fusion protein (enzyme)	220	23	10	–
GST-truncated Jak3 fusion protein lacking the JH1, JH2, JH3 and JH4 domains	–	–	–	40
